Data: US20110212162A1 (SANFORD BURNHAM MEDICAL RESEARCH INSTITUTE, published 2011)

Molecular target: T1, chemokine receptor CXCR4, expressed on transfected 293T cells (UniProt P61073 1-352, limits assumed)
T1 construct: whole, on cells; also called CXCR4 receptor
Assay: phage binding to transfected 293T cells; bound phage rescued and titrated
Description: Briefly, plasmid (10 μg) was mixed with 900 μl of serumfree DMEM and 50 μl of FuGene and incubated for 15 min at room temperature before adding the mixture to the cells. The cells were detached using EDTA after 48 hrs post transfection and washed with PBS containing 1% BSA. Phage (5×10⁹ pfu) were incubated with the transfected cells and bound phage were rescued and titrated. For competitive binding assay, the cognate peptide (150 μg/ml) or antibody (50 μg/ml) was added during incubating of the phage with cells. Targeted proapoptotic peptide treatment of tumor-bearing mice Prostate cancer model. Orthotopic xenografted prostate tumors were established by injecting 1×10⁶ PPC1 human prostate cancer cells into the mouse prostate. Fifteen days post inoculation, the mice were intravenously injected with D(KLAKLAK)₂-[…] (SEQ ID NO:41), an equimolar mixture of D(KLAKLAK)₂ (SEQ ID NO:19) and […] (SEQ ID NO:6), or PBS. Biweekly injections of 100 μg/dose/mouse were given for three weeks. Melanoma model. Nude BALB/c mice were subcutaneously injected with 1×10⁶ C8161 human melanoma cells. Treatment started when mean tumor volumes reached about 100 mm3. Mice with size-matched tumors were randomized into three groups. […] The mice were monitored for weight loss, and tumors were dissected and weighed at the termination of the experiment. […]

T1 sequence (P61073 whole entry): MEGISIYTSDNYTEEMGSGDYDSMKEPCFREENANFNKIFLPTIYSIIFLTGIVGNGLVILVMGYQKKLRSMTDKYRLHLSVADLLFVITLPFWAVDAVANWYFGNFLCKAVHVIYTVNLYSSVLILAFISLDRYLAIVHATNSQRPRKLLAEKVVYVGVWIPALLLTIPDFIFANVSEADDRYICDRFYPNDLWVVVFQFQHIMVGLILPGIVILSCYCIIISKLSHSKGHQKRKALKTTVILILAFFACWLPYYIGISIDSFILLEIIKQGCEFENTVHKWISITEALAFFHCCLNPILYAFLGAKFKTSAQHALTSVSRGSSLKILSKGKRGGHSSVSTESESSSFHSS

Does CGNKRTRGC [LyP-1 phage (T7 phage displaying the peptide CGNKRTRGC, SEQ ID NO:16)] bind?
Result: no binding (tested: 5x10^9 pfu phage)
